Laboratory results reported in patent US20220259593A1, “CONTROL OF MAMMALIAN GENE DOSAGE USING CRISPR” (The Regents of the University of California, priority 2019, published 2022).
Positions count from the first letter of the chain named.

B1: cr719 (nucleic acid)
guide: GTTTAAGAGCTAAGCTGGAAACAGCATAGCAAGTTTAAATAAGGCTAGTCCGTTATCAACTTGAAAAAGTGGCACCGAGTCGGTGAT
modifications: listed as DNA, chemistry not fully specified
B2: cr597 (nucleic acid)
guide: B1 guide with A59C, T70G, C73G, G77T, C81A, G85C, A86C
modifications: listed as DNA, chemistry not fully specified
B3: cr450 (nucleic acid)
guide: B1 guide with A65G, A74G, T84C, A86C
modifications: listed as DNA, chemistry not fully specified
B4: cr136 (nucleic acid)
guide: B1 guide with C45T, G48A, A74G, C75A, G83T, T84C, A86C
modifications: listed as DNA, chemistry not fully specified
B5: cr116 (nucleic acid)
guide: B1 guide with T61G, A68C, A86C
modifications: listed as DNA, chemistry not fully specified
B6: cr838 (nucleic acid)
guide: B1 guide with T46C, A86C
modifications: listed as DNA, chemistry not fully specified
B7: cr822 (nucleic acid)
guide: B1 guide with T49A, A66C, A86C
modifications: listed as DNA, chemistry not fully specified
B8: cr132 (nucleic acid)
guide: B1 guide with A65G, C76T, G82A, A86C
modifications: listed as DNA, chemistry not fully specified
B9: cr630 (nucleic acid)
guide: B1 guide with A55G, T56C, G79C, A86C
modifications: listed as DNA, chemistry not fully specified
B10: cr388 (nucleic acid)
guide: B1 guide with G72T, C73A, G85T
modifications: listed as DNA, chemistry not fully specified
B11: cr243 (nucleic acid)
guide: B1 guide with T62C, A67G, A74C, C76T, G82A, T84G, A86C
modifications: listed as DNA, chemistry not fully specified
B12: cr780 (nucleic acid)
guide: B1 guide with T62G, A67C, G77T, C81A, A86C
modifications: listed as DNA, chemistry not fully specified
B13: cr769 (nucleic acid)
guide: B1 guide with A32G, T53G, T54A, A86C
modifications: listed as DNA, chemistry not fully specified
B14: cr823 (nucleic acid)
guide: B1 guide with T62A, A67T, C76T, G82A, A86C
modifications: listed as DNA, chemistry not fully specified
B15: cr752 (nucleic acid)
guide: B1 guide with A65T, A86C, T87G
modifications: listed as DNA, chemistry not fully specified
B16: cr304 (nucleic acid)
guide: B1 guide with C60T, A65G, G69A, A86C
modifications: listed as DNA, chemistry not fully specified
B17: cr291 (nucleic acid)
guide: B1 guide with G72C, C75T, G83A, A86G
modifications: listed as DNA, chemistry not fully specified
B18: cr421 (nucleic acid)
guide: B1 guide with A68C, A86C
modifications: listed as DNA, chemistry not fully specified
B19: cr364 (nucleic acid)
guide: B1 guide with T61A, A86C
modifications: listed as DNA, chemistry not fully specified
B20: cr576 (nucleic acid)
guide: B1 guide with T16C, A86C
modifications: listed as DNA, chemistry not fully specified
B21: cr640 (nucleic acid)
guide: B1 guide with A74C, C76A, G82T, T84G, A86C
modifications: listed as DNA, chemistry not fully specified
B22: cr375 (nucleic acid)
guide: B1 guide with G17T, A86C
modifications: listed as DNA, chemistry not fully specified
B23: cr693 (nucleic acid)
guide: B1 guide with A74T, G77A, C81T, T84A, A86C
modifications: listed as DNA, chemistry not fully specified
B24: cr953 (nucleic acid)
guide: B1 guide with A78C, A86C
modifications: listed as DNA, chemistry not fully specified
B25: cr546 (nucleic acid)
guide: B1 guide with C60A, A65G, G69T, A86C
modifications: listed as DNA, chemistry not fully specified
B26: cr577 (nucleic acid)
guide: B1 guide with A28G, A42G, A55C, A86C
modifications: listed as DNA, chemistry not fully specified
B27: cr567 (nucleic acid)
guide: B1 guide with A64C, A65G, A86C
modifications: listed as DNA, chemistry not fully specified
B28: cr361 (nucleic acid)
guide: B1 guide with G17C, A86C
modifications: listed as DNA, chemistry not fully specified
B29: cr525 (nucleic acid)
guide: B1 guide with A59C, T70G, C76G, G82C, A86C
modifications: listed as DNA, chemistry not fully specified
B30: cr614 (nucleic acid)
guide: B1 guide with G18A, A86C
modifications: listed as DNA, chemistry not fully specified
B31: cr371 (nucleic acid)
guide: B1 guide with T54C, T56G, G79C, A86C
modifications: listed as DNA, chemistry not fully specified
B32: cr974 (nucleic acid)
guide: B1 guide with A65G, A78T, A86C
modifications: listed as DNA, chemistry not fully specified

Tested on: K562 CRISPRi cells
Assay: Constant region variant library pooled growth screen, K562
Format: cell-based, human
Details: sgRNA constant region variants
From the text: We calculated relative activities for each targeting sequence:constant region pair by normalizing its phenotype to that of the targeting sequence paired with the unmodified constant region, identifying 409 constant region variants that on average conferred intermediate activity (0.1-0.9, FIG. 5B). Ten variants selected for individual evaluation also mediated intermediate levels of mRNA knockdown (FIG. 6B). Mapping the activities of constant region variants with single base substitutions onto the structure recapitulated known relationships between constant region structure and function (FIG. 5C).
The sequences in the library of modified constant regions were derived from the sgRNA (F+E) optimized sequence (23) modified to include a BlpI site (15). Each modified constant region was paired with 36 sgRNA targeting sequences (3 sgRNAs targeting each of 10 essential genes and six non-targeting negative control sgRNAs). The cloning strategy (described below) allowed the mutation of most positions in the sgRNA constant region. A variety of modifications were made, including substitutions of all single bases not in the BlpI restriction site (which is used for cloning), double substitutions including all substitutions at base-paired position pairs not before or in the BlpI site, and a variety of triple, quadruple, and sextuple substitutions, including base-pair-preserving substitutions at adjacent base-pairs.
The library was ordered and cloned in two parts. One part consisted of ˜100 modifications to the eight bases upstream of the BlpI restriction site. Constant region variants with mutations in this section were paired with each of the 36 targeting sequences, ordered as a pooled oligonucleotide library (Twist Biosciences), and cloned into pCRISPRia-v2 as described above. The second part consisted of ˜900 modifications to the 71 bases downstream of the BlpI restriction site. This part was cloned in two steps. First, all 36 targeting sequences were individually cloned into pCRISPRia-v2 as described above. The vectors were then pooled at an equimolar ratio and digested with BlpI (NEB) and XhoI (NEB). The modified constant region variants were ordered as a pooled oligonucleotide library (Twist Biosciences), PCR amplified with Phusion polymerase (NEB), digested with BlpI (NEB) and XhoI (NEB), and ligated into the digested vector pool, in a manner identical to previously published protocols and as described above, except for the different restriction enzymes.
Screens with the compact mismatched sgRNA library and the constant region library were conducted largely as described above, with smaller modifications during the screening procedure and an updated sequencing library preparation protocol. Briefly, the libraries were transduced in duplicate into K562 CRISPRi (both libraries) or HeLa CRISPRi cells (compact mismatched sgRNA library) as described above. K562 replicates were maintained separately in 0.15 to 0.3 L of RPMI-1640 in 0.3 L spinner flasks for the course of the screen. HeLa replicates were maintained in sets of ten 15-cm plates. Cells were selected with puromycin as described above (K562: 1 day of 0.75 μg/mL and 1 day of 0.85 μg/mL; HeLa: 2 days of 0.8 μg/mL and 1 day of 1 μg/mL). The remainder of the screen was carried out at >1000× library coverage (K562 compact mismatched sgRNA library: >2000×; HeLa compact mismatched sgRNA library: >1000×; K562 constant region library: >2000×). Multiple samples were harvested after 4 to 8 days of growth. For the drug screen, 10 μM lovastatin (ApexBio) or an equivalent volume of DMSO (vehicle) was added to flasks at t=0, and 3 days later cells were pelleted and re-suspended in fresh medium. Lovastatin (12 μM) or DMSO was again added after 5 and 9 days of growth, with media exchanges 3 days after drug supplementation. Multiple samples were harvested after 4 to 8 days for the K562 and HeLa growth screens. […]

[1] = activity relative to the un-modified constant region cr995
[2] = activity relative to the original, un-modified constant region cr995

Molecule | Mean relative activity [1] | Mean relative activity [2]
B1 | 0.9381 | 
B2 | 0.9187 | 
B3 |  | 1.064
B4 | 0.9172 | 
B5 |  | 1.064
B6 | 0.9187 | 
B7 | 0.9333 | 
B8 | 0.9196 | 
B9 | 0.9325 | 
B10 | 0.9188 | 
B11 | 0.9319 | 
B12 | 0.9287 | 
B13 | 0.9268 | 
B14 | 0.936 | 
B15 | 0.9196 | 
B16 | 0.9285 | 

Molecule | Mean relative activity [1] | Mean relative activity [2]
B17 | 0.9321 | 
B18 | 0.9381 | 
B19 | 0.9193 | 
B20 | 0.935 | 
B21 | 0.9186 | 
B22 | 0.9294 | 
B23 | 0.9369 | 
B24 | 0.9337 | 
B25 | 0.9326 | 
B26 | 0.9309 | 
B27 |  | 1.06
B28 | 0.9312 | 
B29 | 0.9205 | 
B30 | 0.927 | 
B31 | 0.9355 | 
B32 | 0.9235 | 
